Reference: patent publication US20240100162A1 (published 2024)

Legend:
[1] = biological target: T1, MAGE-B2 peptide on HLA-A*02:01 (human); assay: multimer staining
T1 peptide: GVYDGEEHSV

[2] = biological target: T2, MAGE-B2 peptide, D4C peptide on HLA-A*02:01 (human); assay: killing
T2 peptide: GVYCGEEHSV

[3] = biological target: T3, MAGE-B2 peptide, E7H peptide on HLA-A*02:01 (human); assay: killing
T3 peptide: GVYDGEHHSV

[4] = biological target: T4, MAGE-B2 peptide, S9G peptide on HLA-A*02:01 (human); assay: killing
T4 peptide: GVYDGEEHGV

[5] = biological target: T5, MAGE-B2 peptide, E7C peptide on HLA-A*02:01 (human); assay: killing
T5 peptide: GVYDGECHSV

[6] = biological target: T6, MAGE-B2 peptide, Y3F peptide on HLA-A*02:01 (human); assay: killing
T6 peptide: GVFDGEEHSV

[7] = biological target: T7, MAGE-B2 peptide, E6V peptide on HLA-A*02:01 (human); assay: killing
T7 peptide: GVYDGVEHSV

[8] = biological target: T8, MAGE-B2 peptide, S9E peptide on HLA-A*02:01 (human); assay: killing
T8 peptide: GVYDGEEHEV

[9] = biological target: T9, MAGE-B2 peptide, S9D peptide on HLA-A*02:01 (human); assay: killing
T9 peptide: GVYDGEEHDV

[10] = biological target: T10, MAGE-B2 peptide, S9P peptide on HLA-A*02:01 (human); assay: killing
T10 peptide: GVYDGEEHPV

[11] = biological target: T11, MAGE-B2 peptide, E7N peptide on HLA-A*02:01 (human); assay: killing
T11 peptide: GVYDGENHSV

[12] = biological target: T12, MAGE-B2 peptide, V2I peptide on HLA-A*02:01 (human); assay: killing
T12 peptide: GIYDGEEHSV

[13] = biological target: T13, MAGE-B2 peptide, V10A peptide on HLA-A*02:01 (human); assay: killing
T13 peptide: GVYDGEEHSA

[14] = biological target: T14, MAGE-B2 peptide, S9I peptide on HLA-A*02:01 (human); assay: killing
T14 peptide: GVYDGEEHIV

[15] = biological target: T15, MAGE-B2 peptide, V2T peptide on HLA-A*02:01 (human); assay: killing
T15 peptide: GTYDGEEHSV

[16] = biological target: T16, MAGE-B2 peptide, H8N peptide on HLA-A*02:01 (human); assay: killing
T16 peptide: GVYDGEENSV

[17] = biological target: T17, MAGE-B2 peptide, E7Y peptide on HLA-A*02:01 (human); assay: killing
T17 peptide: GVYDGEYHSV

[18] = biological target: T18, MAGE-B2 peptide, V2M peptide on HLA-A*02:01 (human); assay: killing
T18 peptide: GMYDGEEHSV

[19] = biological target: T19, MAGE-B2 peptide, E7D peptide on HLA-A*02:01 (human); assay: killing
T19 peptide: GVYDGEDHSV

[20] = biological target: T20, MAGE-B2 peptide, E7L peptide on HLA-A*02:01 (human); assay: killing
T20 peptide: GVYDGELHSV

[21] = biological target: T21, MAGE-B2 peptide, S9T peptide on HLA-A*02:01 (human); assay: killing
T21 peptide: GVYDGEEHTV

[22] = biological target: T22, MAGE-B2 peptide, H8W peptide on HLA-A*02:01 (human); assay: killing
T22 peptide: GVYDGEEWSV

[23] = biological target: T23, MAGE-B2 peptide, H8R peptide on HLA-A*02:01 (human); assay: killing
T23 peptide: GVYDGEERSV

[24] = biological target: T24, MAGE-B2 peptide, E7P peptide on HLA-A*02:01 (human); assay: killing
T24 peptide: GVYDGEPHSV

[25] = biological target: T25, MAGE-B2 peptide, V2L peptide on HLA-A*02:01 (human); assay: killing
T25 peptide: GLYDGEEHSV

[26] = biological target: T26, MAGE-B2 peptide, V10I peptide on HLA-A*02:01 (human); assay: killing
T26 peptide: GVYDGEEHSI

[27] = biological target: T27, MAGE-B2 peptide, S9Q peptide on HLA-A*02:01 (human); assay: killing
T27 peptide: GVYDGEEHQV

[28] = biological target: T28, MAGE-B2 peptide, H8F peptide on HLA-A*02:01 (human); assay: killing
T28 peptide: GVYDGEEFSV

[29] = biological target: T29, MAGE-B2 peptide, S9W peptide on HLA-A*02:01 (human); assay: killing
T29 peptide: GVYDGEEHWV

[30] = biological target: T30, MAGE-B2 peptide, S9A peptide on HLA-A*02:01 (human); assay: killing
T30 peptide: GVYDGEEHAV

[31] = biological target: T31, MAGE-B2 peptide, S9N peptide on HLA-A*02:01 (human); assay: killing
T31 peptide: GVYDGEEHNV

[32] = biological target: T32, MAGE-B2 peptide, S9Y peptide on HLA-A*02:01 (human); assay: killing
T32 peptide: GVYDGEEHYV

[33] = biological target: T33, MAGE-B2 peptide, E7Q peptide on HLA-A*02:01 (human); assay: killing
T33 peptide: GVYDGEQHSV

[34] = biological target: T34, MAGE-B2 peptide, H8E peptide on HLA-A*02:01 (human); assay: killing
T34 peptide: GVYDGEEESV

[35] = biological target: T35, MAGE-B2 peptide, D4N peptide on HLA-A*02:01 (human); assay: killing
T35 peptide: GVYNGEEHSV

[36] = biological target: T36, MAGE-B2 peptide, S9V peptide on HLA-A*02:01 (human); assay: killing
T36 peptide: GVYDGEEHVV

[37] = biological target: T37, MAGE-B2 peptide, E7M peptide on HLA-A*02:01 (human); assay: killing
T37 peptide: GVYDGEMHSV

[38] = biological target: T38, MAGE-B2 peptide, H8I peptide on HLA-A*02:01 (human); assay: killing
T38 peptide: GVYDGEEISV

[39] = biological target: T39, MAGE-B2 peptide, H8Y peptide on HLA-A*02:01 (human); assay: killing
T39 peptide: GVYDGEEYSV

[40] = biological target: T40, MAGE-B2 peptide, S9C peptide on HLA-A*02:01 (human); assay: killing
T40 peptide: GVYDGEEHCV

[41] = biological target: T41, MAGE-B2 peptide, V10L peptide on HLA-A*02:01 (human); assay: killing
T41 peptide: GVYDGEEHSL

Measured: binding result

B1: TCR3 (TCR, V domains shown)
Valpha: AQKVTQAQTEISVVEKEDVTLDCVYETRDTTYYLFWYKQPPSGELVFLIRRNSFDEQNEISGRYSWNFQKSTSSFNFTITASQVVDSAVYFCALSVLRMDSSYKLIFGSGTRLLVRP
Vbeta: NAGVTQTPKFRVLKTGQSMTLLCAQDMNHEYMYWYRQDPGMGLRLIHYSVGEGTTAKGEVPDGYNVSRLKKQNFLLGLESAAPSQTSVYFCASSLQGAGQPQHFGDGTRLSIL
recognises: all assays above
